Measurements published in PMC3742539, “ε Subunit of Bacillus subtilis F1-ATPase Relieves MgADP Inhibition” (PLoS ONE, 2013).

Target: T1, γ^S3C subunit of BF1 (Bacillus subtilis, UniProt P37810 1-287, S3C)
T1 construct: F1-ATPase γ subunit, Bacillus subtilis, with γSer3 to Cys; Stood in the assay as a subunit of the α3β3γ^S3C complex, never isolated alone; source: E. coli BL21(DE3), co-expressed with α and His6-β, purified as part of the α3β3γ^S3C complex
Test: cross-linking; disulfide cross-linking without ATP: α3β3γ^S3C and ε^133C mixed 1:10, excess ε removed by ultrafiltration (100-kDa cutoff), 50 µM CuCl2, 1 h, 25 °C, 50 mM Tris-H2SO4 pH 7.5, 50 mM K2SO4; non-reducing SDS-PAGE
Conditions: both partners purified

B1: mutant BF1 ε subunit (133C, a Cys introduced at the C-terminus) (natural protein, Bacillus subtilis, UniProt P37812 1-132, looked up)
chain: MKTVKVNIVTPDGPVYDADIEMVSVRAESGDLGILPGHIPTVAPLKIGAVRLKKDGQTEMVAVSGGFVEVRPDHVTILAQAAETAEGIDKERAEAARQRAQERLNSQSDDTDIRRAELALQRALNRLDVAGKC
binding result: binds
